According to the Human Domainome abundance scans (Beltran et al. 2025):
± gives the uncertainty stated by the source.

B1: Formin-binding protein 4, residues 200 to 261; numbered along this chain, Q8N3X1 (parent)
chain: SGWQYDTQCSLAGVGIEMGDWQEVWDENTGCYYYWNTQTNEVTWELPQYLATQVQGLQHYQP

Variants of: B1
Assay: abundance fitness (aPCA) (normalised: wild type 0, dead -1); higher = more abundant; growth selection in yeast, the domain comes from the species named
Conditions: Homo sapiens

Variant	abundance fitness
SGWQYDTQCSLAGVGIEMGDWQEVWDENTGCYYYWNTETNEVTWELPQYLATQVQGLQHYQP [Q38E]	-0.081 ± 0.08
SGWQYDTQCSLAGVGIEMGDWQEVWDENTGCYYYWNTFTNEVTWELPQYLATQVQGLQHYQP [Q38F]	-0.346 ± 0.17
SGWQYDTQCSLAGVGIEMGDWQEVWDENTGCYYYWNTGTNEVTWELPQYLATQVQGLQHYQP [Q38G]	-0.077 ± 0.064
SGWQYDTQCSLAGVGIEMGDWQEVWDENTGCYYYWNTHTNEVTWELPQYLATQVQGLQHYQP [Q38H]	-0.022 ± 0.25
SGWQYDTQCSLAGVGIEMGDWQEVWDENTGCYYYWNTITNEVTWELPQYLATQVQGLQHYQP [Q38I]	-0.086 ± 0.14
SGWQYDTQCSLAGVGIEMGDWQEVWDENTGCYYYWNTKTNEVTWELPQYLATQVQGLQHYQP [Q38K]	0.138 ± 0.11
SGWQYDTQCSLAGVGIEMGDWQEVWDENTGCYYYWNTLTNEVTWELPQYLATQVQGLQHYQP [Q38L]	-0.133 ± 0.063
SGWQYDTQCSLAGVGIEMGDWQEVWDENTGCYYYWNTMTNEVTWELPQYLATQVQGLQHYQP [Q38M]	-0.11 ± 0.092
SGWQYDTQCSLAGVGIEMGDWQEVWDENTGCYYYWNTNTNEVTWELPQYLATQVQGLQHYQP [Q38N]	-0.266 ± 0.25
SGWQYDTQCSLAGVGIEMGDWQEVWDENTGCYYYWNTPTNEVTWELPQYLATQVQGLQHYQP [Q38P]	-0.541 ± 0.14
SGWQYDTQCSLAGVGIEMGDWQEVWDENTGCYYYWNTRTNEVTWELPQYLATQVQGLQHYQP [Q38R]	0.042 ± 0.064
SGWQYDTQCSLAGVGIEMGDWQEVWDENTGCYYYWNTSTNEVTWELPQYLATQVQGLQHYQP [Q38S]	-0.019 ± 0.069
SGWQYDTQCSLAGVGIEMGDWQEVWDENTGCYYYWNTTTNEVTWELPQYLATQVQGLQHYQP [Q38T]	0.254 ± 0.082
SGWQYDTQCSLAGVGIEMGDWQEVWDENTGCYYYWNTVTNEVTWELPQYLATQVQGLQHYQP [Q38V]	-0.126 ± 0.074
SGWQYDTQCSLAGVGIEMGDWQEVWDENTGCYYYWNTWTNEVTWELPQYLATQVQGLQHYQP [Q38W]	-0.216 ± 0.088
SGWQYDTQCSLAGVGIEMGDWQEVWDENTGCYYYWNTYTNEVTWELPQYLATQVQGLQHYQP [Q38Y]	0.128 ± 0.26
SGWQYDTQCSLAGVGIEMGDWQEVWDENTGCYYYWNTQANEVTWELPQYLATQVQGLQHYQP [T39A]	-0.411 ± 0.098
SGWQYDTQCSLAGVGIEMGDWQEVWDENTGCYYYWNTQCNEVTWELPQYLATQVQGLQHYQP [T39C]	-0.307 ± 0.094
SGWQYDTQCSLAGVGIEMGDWQEVWDENTGCYYYWNTQDNEVTWELPQYLATQVQGLQHYQP [T39D]	-0.151 ± 0.18
SGWQYDTQCSLAGVGIEMGDWQEVWDENTGCYYYWNTQENEVTWELPQYLATQVQGLQHYQP [T39E]	-0.37 ± 0.13
SGWQYDTQCSLAGVGIEMGDWQEVWDENTGCYYYWNTQFNEVTWELPQYLATQVQGLQHYQP [T39F]	-0.577 ± 0.13
SGWQYDTQCSLAGVGIEMGDWQEVWDENTGCYYYWNTQGNEVTWELPQYLATQVQGLQHYQP [T39G]	-0.362 ± 0.097

Variant	abundance fitness
SGWQYDTQCSLAGVGIEMGDWQEVWDENTGCYYYWNTQHNEVTWELPQYLATQVQGLQHYQP [T39H]	-0.34 ± 0.16
SGWQYDTQCSLAGVGIEMGDWQEVWDENTGCYYYWNTQINEVTWELPQYLATQVQGLQHYQP [T39I]	-0.354 ± 0.1
SGWQYDTQCSLAGVGIEMGDWQEVWDENTGCYYYWNTQKNEVTWELPQYLATQVQGLQHYQP [T39K]	-0.123 ± 0.089
SGWQYDTQCSLAGVGIEMGDWQEVWDENTGCYYYWNTQLNEVTWELPQYLATQVQGLQHYQP [T39L]	-0.461 ± 0.066
SGWQYDTQCSLAGVGIEMGDWQEVWDENTGCYYYWNTQMNEVTWELPQYLATQVQGLQHYQP [T39M]	-0.386 ± 0.1
SGWQYDTQCSLAGVGIEMGDWQEVWDENTGCYYYWNTQNNEVTWELPQYLATQVQGLQHYQP [T39N]	-0.093 ± 0.11
SGWQYDTQCSLAGVGIEMGDWQEVWDENTGCYYYWNTQPNEVTWELPQYLATQVQGLQHYQP [T39P]	-0.873 ± 0.12
SGWQYDTQCSLAGVGIEMGDWQEVWDENTGCYYYWNTQQNEVTWELPQYLATQVQGLQHYQP [T39Q]	-0.226 ± 0.12
SGWQYDTQCSLAGVGIEMGDWQEVWDENTGCYYYWNTQRNEVTWELPQYLATQVQGLQHYQP [T39R]	-0.306 ± 0.06
SGWQYDTQCSLAGVGIEMGDWQEVWDENTGCYYYWNTQSNEVTWELPQYLATQVQGLQHYQP [T39S]	0.017 ± 0.058
SGWQYDTQCSLAGVGIEMGDWQEVWDENTGCYYYWNTQVNEVTWELPQYLATQVQGLQHYQP [T39V]	-0.877 ± 0.14
SGWQYDTQCSLAGVGIEMGDWQEVWDENTGCYYYWNTQWNEVTWELPQYLATQVQGLQHYQP [T39W]	-0.568 ± 0.094
SGWQYDTQCSLAGVGIEMGDWQEVWDENTGCYYYWNTQYNEVTWELPQYLATQVQGLQHYQP [T39Y]	-0.579 ± 0.15
SGWQYDTQCSLAGVGIEMGDWQEVWDENTGCYYYWNTQTAEVTWELPQYLATQVQGLQHYQP [N40A]	-0.08 ± 0.07
SGWQYDTQCSLAGVGIEMGDWQEVWDENTGCYYYWNTQTCEVTWELPQYLATQVQGLQHYQP [N40C]	-0.505 ± 0.13
SGWQYDTQCSLAGVGIEMGDWQEVWDENTGCYYYWNTQTEEVTWELPQYLATQVQGLQHYQP [N40E]	-0.04 ± 0.075
SGWQYDTQCSLAGVGIEMGDWQEVWDENTGCYYYWNTQTFEVTWELPQYLATQVQGLQHYQP [N40F]	-0.37 ± 0.12
SGWQYDTQCSLAGVGIEMGDWQEVWDENTGCYYYWNTQTGEVTWELPQYLATQVQGLQHYQP [N40G]	-0.037 ± 0.062
SGWQYDTQCSLAGVGIEMGDWQEVWDENTGCYYYWNTQTHEVTWELPQYLATQVQGLQHYQP [N40H]	-0.032 ± 0.11
SGWQYDTQCSLAGVGIEMGDWQEVWDENTGCYYYWNTQTIEVTWELPQYLATQVQGLQHYQP [N40I]	-0.607 ± 0.19
SGWQYDTQCSLAGVGIEMGDWQEVWDENTGCYYYWNTQTMEVTWELPQYLATQVQGLQHYQP [N40M]	-0.298 ± 0.091
SGWQYDTQCSLAGVGIEMGDWQEVWDENTGCYYYWNTQTPEVTWELPQYLATQVQGLQHYQP [N40P]	-0.931 ± 0.15

Variant	abundance fitness
SGWQYDTQCSLAGVGIEMGDWQEVWDENTGCYYYWNTQTQEVTWELPQYLATQVQGLQHYQP [N40Q]	-0.056 ± 0.082
SGWQYDTQCSLAGVGIEMGDWQEVWDENTGCYYYWNTQTREVTWELPQYLATQVQGLQHYQP [N40R]	-0.157 ± 0.06
SGWQYDTQCSLAGVGIEMGDWQEVWDENTGCYYYWNTQTSEVTWELPQYLATQVQGLQHYQP [N40S]	-0.057 ± 0.063
SGWQYDTQCSLAGVGIEMGDWQEVWDENTGCYYYWNTQTTEVTWELPQYLATQVQGLQHYQP [N40T]	-0.096 ± 0.097
SGWQYDTQCSLAGVGIEMGDWQEVWDENTGCYYYWNTQTVEVTWELPQYLATQVQGLQHYQP [N40V]	-0.556 ± 0.081
SGWQYDTQCSLAGVGIEMGDWQEVWDENTGCYYYWNTQTWEVTWELPQYLATQVQGLQHYQP [N40W]	-0.34 ± 0.082
SGWQYDTQCSLAGVGIEMGDWQEVWDENTGCYYYWNTQTYEVTWELPQYLATQVQGLQHYQP [N40Y]	-0.564 ± 0.17
SGWQYDTQCSLAGVGIEMGDWQEVWDENTGCYYYWNTQTNAVTWELPQYLATQVQGLQHYQP [E41A]	-0.109 ± 0.086
SGWQYDTQCSLAGVGIEMGDWQEVWDENTGCYYYWNTQTNCVTWELPQYLATQVQGLQHYQP [E41C]	-0.409 ± 0.15
SGWQYDTQCSLAGVGIEMGDWQEVWDENTGCYYYWNTQTNDVTWELPQYLATQVQGLQHYQP [E41D]	-0.268 ± 0.19
SGWQYDTQCSLAGVGIEMGDWQEVWDENTGCYYYWNTQTNFVTWELPQYLATQVQGLQHYQP [E41F]	-0.556 ± 0.14
SGWQYDTQCSLAGVGIEMGDWQEVWDENTGCYYYWNTQTNGVTWELPQYLATQVQGLQHYQP [E41G]	-0.471 ± 0.1
SGWQYDTQCSLAGVGIEMGDWQEVWDENTGCYYYWNTQTNHVTWELPQYLATQVQGLQHYQP [E41H]	-0.472 ± 0.2
SGWQYDTQCSLAGVGIEMGDWQEVWDENTGCYYYWNTQTNIVTWELPQYLATQVQGLQHYQP [E41I]	-0.324 ± 0.17
SGWQYDTQCSLAGVGIEMGDWQEVWDENTGCYYYWNTQTNKVTWELPQYLATQVQGLQHYQP [E41K]	-0.081 ± 0.092
SGWQYDTQCSLAGVGIEMGDWQEVWDENTGCYYYWNTQTNLVTWELPQYLATQVQGLQHYQP [E41L]	-0.111 ± 0.059
SGWQYDTQCSLAGVGIEMGDWQEVWDENTGCYYYWNTQTNMVTWELPQYLATQVQGLQHYQP [E41M]	-0.34 ± 0.098
SGWQYDTQCSLAGVGIEMGDWQEVWDENTGCYYYWNTQTNNVTWELPQYLATQVQGLQHYQP [E41N]	-0.364 ± 0.18
SGWQYDTQCSLAGVGIEMGDWQEVWDENTGCYYYWNTQTNPVTWELPQYLATQVQGLQHYQP [E41P]	-0.776 ± 0.12
SGWQYDTQCSLAGVGIEMGDWQEVWDENTGCYYYWNTQTNQVTWELPQYLATQVQGLQHYQP [E41Q]	0.014 ± 0.076
SGWQYDTQCSLAGVGIEMGDWQEVWDENTGCYYYWNTQTNRVTWELPQYLATQVQGLQHYQP [E41R]	-0.158 ± 0.078
SGWQYDTQCSLAGVGIEMGDWQEVWDENTGCYYYWNTQTNSVTWELPQYLATQVQGLQHYQP [E41S]	-0.349 ± 0.082

Variant	abundance fitness
SGWQYDTQCSLAGVGIEMGDWQEVWDENTGCYYYWNTQTNTVTWELPQYLATQVQGLQHYQP [E41T]	-0.283 ± 0.084
SGWQYDTQCSLAGVGIEMGDWQEVWDENTGCYYYWNTQTNVVTWELPQYLATQVQGLQHYQP [E41V]	-0.323 ± 0.09
SGWQYDTQCSLAGVGIEMGDWQEVWDENTGCYYYWNTQTNWVTWELPQYLATQVQGLQHYQP [E41W]	-0.378 ± 0.11
SGWQYDTQCSLAGVGIEMGDWQEVWDENTGCYYYWNTQTNYVTWELPQYLATQVQGLQHYQP [E41Y]	-0.231 ± 0.13
SGWQYDTQCSLAGVGIEMGDWQEVWDENTGCYYYWNTQTNECTWELPQYLATQVQGLQHYQP [V42C]	-0.242 ± 0.13
SGWQYDTQCSLAGVGIEMGDWQEVWDENTGCYYYWNTQTNEETWELPQYLATQVQGLQHYQP [V42E]	0.063 ± 0.081
SGWQYDTQCSLAGVGIEMGDWQEVWDENTGCYYYWNTQTNEFTWELPQYLATQVQGLQHYQP [V42F]	-0.148 ± 0.096
SGWQYDTQCSLAGVGIEMGDWQEVWDENTGCYYYWNTQTNEITWELPQYLATQVQGLQHYQP [V42I]	-0.188 ± 0.11
SGWQYDTQCSLAGVGIEMGDWQEVWDENTGCYYYWNTQTNEKTWELPQYLATQVQGLQHYQP [V42K]	0.084 ± 0.11
SGWQYDTQCSLAGVGIEMGDWQEVWDENTGCYYYWNTQTNELTWELPQYLATQVQGLQHYQP [V42L]	-0.202 ± 0.055
SGWQYDTQCSLAGVGIEMGDWQEVWDENTGCYYYWNTQTNEMTWELPQYLATQVQGLQHYQP [V42M]	0.12 ± 0.07
SGWQYDTQCSLAGVGIEMGDWQEVWDENTGCYYYWNTQTNENTWELPQYLATQVQGLQHYQP [V42N]	-0.203 ± 0.16
SGWQYDTQCSLAGVGIEMGDWQEVWDENTGCYYYWNTQTNEPTWELPQYLATQVQGLQHYQP [V42P]	-0.415 ± 0.11
SGWQYDTQCSLAGVGIEMGDWQEVWDENTGCYYYWNTQTNEQTWELPQYLATQVQGLQHYQP [V42Q]	0.308 ± 0.094
SGWQYDTQCSLAGVGIEMGDWQEVWDENTGCYYYWNTQTNERTWELPQYLATQVQGLQHYQP [V42R]	0.095 ± 0.067
SGWQYDTQCSLAGVGIEMGDWQEVWDENTGCYYYWNTQTNESTWELPQYLATQVQGLQHYQP [V42S]	0.02 ± 0.065
SGWQYDTQCSLAGVGIEMGDWQEVWDENTGCYYYWNTQTNEWTWELPQYLATQVQGLQHYQP [V42W]	-0.457 ± 0.14
SGWQYDTQCSLAGVGIEMGDWQEVWDENTGCYYYWNTQTNEYTWELPQYLATQVQGLQHYQP [V42Y]	-0.453 ± 0.14
SGWQYDTQCSLAGVGIEMGDWQEVWDENTGCYYYWNTQTNEVAWELPQYLATQVQGLQHYQP [T43A]	-0.1 ± 0.076
SGWQYDTQCSLAGVGIEMGDWQEVWDENTGCYYYWNTQTNEVCWELPQYLATQVQGLQHYQP [T43C]	-0.02 ± 0.096
